Results: patent US6942963 (MIT, dated 2005)
Non-standard residues stand in square brackets, D forms with d.

Molecular target: β-amyloid peptide βAP1-42
Assay: cell-based or functional assay

Chain of β-amyloid peptide βAP1-42 (peptide, as listed by the source): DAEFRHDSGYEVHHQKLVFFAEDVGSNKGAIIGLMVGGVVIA

H-[dT][dP][dI][dR][dT][dP][dA][dP][dA]-OH [decoy peptide DP16 (+NH3.T.P.I.R+.T.P.A.P.A.COO-)]
decrease in aggregation rate of βAP1-42, light scattering at 500 nm, DP16 at 1:1 molar ratio: ~50%
